Laboratory results reported in the supplement of paper PMC9170038.

Test system: MS2 coat protein
Assay: apparent KD of MS2 coat protein; designed switch direction (-1 OFF switch, 1 ON switch): -1; higher = weaker reporter binding
Summary of the method: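 Designed RNA switches were transcribed on Illumina chips by stalled E. coli RNA polymerase and titrated with SNAP-549-labelled MS2 coat protein from 0.7 or 1.5 nM, doubling to 3 µM. Step length ran from 0.8–1.5 h at the lowest concentration to 10–20 min at the highest. The apparent KD is the median over clusters for each design, from curve-fitted normalised cluster fluorescence.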

[1] = input ligand: microRNA oligo, concentration not stated
[2] = Eterna round: R95, input ligand: FMN 200 uM
[3] = Eterna round: R95, input ligand: microRNA oligo, concentration not stated
[4] = Eterna round: R95, input ligand: none

Sequence	apparent KD of MS2 coat protein (input ligand: FMN 200 uM) [nM]	apparent KD of MS2 coat protein (input ligand: none) [nM]	apparent KD of MS2 coat protein [1] [nM]	apparent KD of MS2 coat protein [2] [nM]	apparent KD of MS2 coat protein [3] [nM]	apparent KD of MS2 coat protein [4] [nM]
AGCUGACAAGGAUAUACAUGAGGAUCACCCAUGUUGGUUCAGCGACGAUAGUCGCAAUGUAGAAGGUGUCAGCU [E3/9-C2] (Eterna round: R97, puzzle: Exclusion 3)	108	282	–	–	–	–
AGCUGUGAGCGAGGAUAUCUGCUGUUUUCGGUCGGAGAAGGCGCGGACAGAACAUGAGGAUCACCCAUGUGUAUGGGCGGCCUC [Xexeenve] (Eterna round: R96, puzzle: Exclusion NG 1)	119	73.7	44.5	–	–	–
AGCUGUGGCCAAGGAUAUCCAACCUUAAAUACCGACGUAUAGUCGGACAUGAGGAUCACCCAUGUGGAGAAGGUGGUCUCAGCA [Eli eng2 - 042] (Eterna round: R96, puzzle: Exclusion NG 2)	52.2	30.1	33.7	–	–	–
AGCUGUGGCCGAGGAUAUACAUGAGGAUCACCCAUGUUACAUAAUUAAGCCGGAGAACCGGCUCCGUAGAAGGCGGUCUCAGCA [Eli eng2 - 003] (Eterna round: R96, puzzle: Exclusion NG 2)	12.6	13.7	9.39	–	–	–
AGCUGUGGCCGAGGAUAUCAAGACCGAUGGAAAACCAUCGGAACUCAACAUGAGGAUCACCCAUGUGAGAAGGCGGUCUCAGCA [Eli eng2 - 027] (Eterna round: R96, puzzle: Exclusion NG 2)	10.9	10.9	7.82	–	–	–
AGCUGUGGCCGAGGAUAUCACUACCGAUGGAAAACCAUCGGAACUCCACAUGAGGAUCACCCAUGUGAGAAGGCGGUCUCAGCA [Eli eng2 - 029] (Eterna round: R96, puzzle: Exclusion NG 2)	24	15.7	11.2	–	–	–
AGCUGUGGCCGAGGAUAUCUAAACCUCGAAAACGAAAUAUAAUCGAACAUGAGGAUCACCCAUGUAGAGAAGGCGGUCUCAGCA [Eli eng2 - 033] (Eterna round: R96, puzzle: Exclusion NG 2)	–	–	51	–	–	–
AGCUGUGGCCGAGGAUAUCUAUCCAAUAAAACCGAAAUAUAAUCGGACAUGAGGAUCACCCAUGUAGAGAAGGCGGUCUCAGCA [Eli eng2 - 094] (Eterna round: R96, puzzle: Exclusion NG 2)	–	–	16.4	–	–	–
AGCUGUGGCCGAGGAUAUCUGUUCCAUAUAACCGACGUAUAGUCGGACAUGAGGAUCACCCAUGUAGAGAAGGCGGUCUCAGCA [Eli eng2 - 000] (Eterna round: R96, puzzle: Exclusion NG 2)	39.2	25.4	23.3	–	–	–
AGCUGUGGCCGAGGAUAUGACAUGAGGAUCACCCAUGUACAAGAUUAGGCCUGGUAACAGGCUCAUCAGAAGGCGGUCUCAGCA [Eli eng2 - 015] (Eterna round: R96, puzzle: Exclusion NG 2)	10	13.9	9.52	–	–	–
AGCUGUGGCCGAGGAUAUGCUACUUCAAUAACCGAAAUAUAAUCGGACAUGAGGAUCACCCAUGUAGAGAAGGCGGUCUCAGCA [Eli eng2 - 085] (Eterna round: R96, puzzle: Exclusion NG 2)	–	–	10.3	–	–	–
AGGAAGCAAGGAUAUACGAGGAGAAGGUGUAGAUUUAAAGGACAUGAGGAUCACCCAUGUAGAAGGUGCGAGAA [JR_Exclu2_Sub047] (puzzle: Exclusion 2)	–	–	–	62.7	31.8	41.4
AGGAAGCAAGGAUAUACGAGGAGAAGGUGUCGAUUUAAAGGACAUGAGGAUCACCCAUGUAGAAGGUGCGAGAA [JR_Exclu2_Sub048] (puzzle: Exclusion 2)	–	–	–	110	83.6	95.8
AGGACAUCAGGCGGCAUGUACAUGAGGAUCACCCAUGUCCUAGAAAGCUGUAUGCUCGUCUUAGGCCCAACCUCGCU [Eternabot (Original) Solution 13] (Eterna round: R97, puzzle: Sensor, turn-off variant 1)	65.1	61	–	–	–	–
AGGAUGUGAGGAUAUCCAUCCCGCGAAUACGGGUAAUAAAUGGAGAAGGCACAUGAGGAUCACCCAUGUGAUGA [Ceersois] (Eterna round: R97, puzzle: Exclusion 4)	262	54.1	–	–	–	–
AGGAUGUUAGGAUAUCGGAGAUGCGGGAGGAGGUGGAGGUACGAGAAGGAACAUGAGGAUCACCCAUGUGGAAG [JR_Exclu4_Sub045] (puzzle: Exclusion 4)	–	–	–	–	18.4	–
AGGAUGUUAGGAUAUCGGAGAUGCUGGAGGAGGUGGAUUUACGAGAAGGAACAUGAGGAUCACCCAUGUGGAAG [JR_Exclu4_Sub046] (puzzle: Exclusion 4)	–	–	–	35.1	25.8	27.2

Sequence	apparent KD of MS2 coat protein (input ligand: FMN 200 uM) [nM]	apparent KD of MS2 coat protein (input ligand: none) [nM]	apparent KD of MS2 coat protein [1] [nM]	apparent KD of MS2 coat protein [2] [nM]	apparent KD of MS2 coat protein [3] [nM]	apparent KD of MS2 coat protein [4] [nM]
AGGCGGAAAGUAAGGAUAUCUUGACCAAAGGGUUGAGAGAAGGUACAUGAGGAUCACCCAUGUGGUGACCGCCA [Morphing Claw (Vienna)] (Eterna round: R97, puzzle: Brourd's mod of Exclusion 4)	228	685	–	–	–	–
AGGCGGACAUCUAAUACUCACAUGAGGAUCACCCAUGUUUGACCAAAUAUACAGGCCGGUUUGCUUAGUCUUACUUG [Eternabot (L2) Solution 43] (Eterna round: R97, puzzle: Sensor, turn-off variant 1)	40.8	49.2	–	–	–	–
AGGGACGUAGGAUAUACCGUGUAGUACAUGAGGAUCACCCAUGUUUGCCUCAUAGUCCACGUAGAAGGAUGUGACA [Eternabot (L2) Solution 37] (Eterna round: R97, puzzle: Exclusion 5)	70.9	64.1	–	–	–	–
AGGGAUAAAGGAUAUACAUGAGGAUCACCCAUGUUGAGGAAGGUUAGAGGUGGCGAUAGUAGAAGGUUAGGUAG [JR_Exclu3_Sub081] (puzzle: Exclusion 3)	–	–	–	–	77	–
AGGGCGGGAGGAUAUCCAAUAUAUGACAUGAGGAUCACCCAUGUUUCCACUCGUACCUCCGGAGAAGGCCCGCCGA [Ex5 #25] (Eterna round: R97, puzzle: Exclusion 5)	21.2	21.5	–	–	–	–
AGGGCUGCUCAGGAUAUCCGUAAAAGCCGAGAAGGAGAAGGGAGCACAUGAGGAUCACCCAUGUGAUCCGAAAA [Verila] (puzzle: Exclusion 6)	–	–	–	–	19.7	–
AGGUAGUCAGGAUAUUAAGAGUAGCGGGAUAACGCUACGAGUGAGAAGGGACAUGAGGAUCACCCAUGUUUUAA [JR_Ex4_Sub071] (Eterna round: R97, puzzle: Exclusion 4)	23.4	23.2	–	–	–	–
AGGUCCUUCUGGACACAUGAGGAUCACCCAUGUGAGGUCAGCGAGGAUAUCGGUCUAUAAUGUGACGAGAAGGCGCGGACCGAU [Ex NG3 #59] (Eterna round: R96, puzzle: Exclusion NG 3)	16.8	16.4	11.3	–	–	–
AGGUGACUGGUGAGGAUAUCGUGUUCGAAAGAACGUGAGAAGGCACAUGAGGAUCACCCAUGUGAUCCUCAUCG [Omei Ex4B A30] (Eterna round: R97, puzzle: Brourd's mod of Exclusion 4)	101	27	–	–	–	–
AGGUGUAGAGGAUAUACAGUGUAUUACAUGAGGAUCACCCAUGUCCUUCAAUGGGUAUCAGUAGAAGGCUACACCA [Omei Ex5 C1] (Eterna round: R97, puzzle: Exclusion 5)	1060	485	–	–	–	–
AGGUGUAGAGGAUAUCCAUCCUCCCACAUGAGGAUCACCCAUGUCCUGGUCACCAAGGACGGAGAAGGCUACACCA [Omei Ex5 D21] (Eterna round: R97, puzzle: Exclusion 5)	108	142	–	–	–	–
AGGUGUAGAGGAUAUCGAGUUCUUUACAUGAGGAUCACCCAUGUCCUGGGCACCCAGGACCGAGAAGGCUACACCA [Omei Ex5 D29] (Eterna round: R97, puzzle: Exclusion 5)	50.3	32.8	–	–	–	–
AGGUGUAGAGGAUAUCUAUACUCCCACAUGAGGAUCACCCAUGUCCUGGUCACCAAGGACGGAGAAGGCUACACCA [Omei Ex5 D22] (Eterna round: R97, puzzle: Exclusion 5)	130	68.3	–	–	–	–
AGGUGUAGAGGAUAUCUCUUCUCUCACAUGAGGAUCACCCAUGUCCUAAAGUCCAAGGAGAGAGAAGGCUACACCA [Omei Ex5 D4] (Eterna round: R97, puzzle: Exclusion 5)	107	110	–	–	–	–
AGGUGUGAAGGAUAUAGCGUGGUCGACAUGAGGAUCACCCAUGUGAGAUGGUCGCCGGGUCUAGAAGGUUAGCUAA [Eternabot (L1) Solution 97] (Eterna round: R97, puzzle: Exclusion 5)	82.5	97.2	–	–	–	–
AGGUUGUGAGGAUAUUAGUUAUAUGUUUGGAGGUGUAUGGCUGAGAAGGCACAUGAGGAUCACCCAUGUAGAUC [JR_Ex4_Sub049] (Eterna round: R97, puzzle: Exclusion 4)	301	175	–	–	–	–
AGUAACCGUCACGAAAGUGAUGGUUACGCAAGCAAAUGUACAUGAGGAUCACCCAUGUCCUCAUUUGCUCGUCUUAU [Sensor 3 - 43] (puzzle: Sensor v3, turn-off variant 2)	–	–	–	19.6	362	17.7
